In publication PMC11137118 (2024):

Tests used:
[1] = molecular target: all variants (mouse) of IL-22-ScFv; assay: SPR
[2] = molecular target: hIL-22-ScFv (human IL-22 fused to a pancreas/liver targeting single chain variable fragment, linker (G4S)1) (human, UniProt Q9GZX6); assay: SPR

B1: IL-22RA1 receptor (receptor)
chain: HAPEDPSDLLQHVKFQSSNFENILTWDSGPEGTPDTVYSIEYKTYGERDWVAKKGCQRITRKSCNLTVETGNLTELYYARVTAVSAGGRSATKMTDRFSSLQHTTLKPPDVTCISKVRSIQMIVHPTPTPIRAGDGHRLTLEDIFHDLFYHLELQVNRTYQMHLGGKQREYEFFGLTPDTEFLGTIMICVPTWAKESAPYMCRVKTLPDRTWTYSFSGAFLFSMGFLVAVLCYLSYRYVTKPPAPPNSLNVQRVLTFQPLRFIQEHVLIPVFDLSGPSSLAQPVQYSQIRVSGPREPAGAPQRHSLSEITYLGQPDISILQPSNVPPPQILSPLSYAPNAAPEVGPPSYAPQVTPEAQFPFYAPQAISKVQPSSYAPQATPDSWPPSYGVCMEGSGKDSPTGTLSSPKHLRPKGQLQKEPPAGSCMLGGLSLQEVTSLAMEESQEAKSLHQPLGICTDRTSDPNVLHSGEEGTPQYLKGQLPLLSSVQIEGHPMSLPLQPPSRPCSPSDQGPSPWGLLESLVCPKDEAKSPAPETSDLEQPTELDSLFRGLALTVQWES
Kd [1]: 2.82 nM
koff [1]: 0.000872 s⁻¹
Kd [2]: 3.45 nM
koff [2]: 0.000781 s⁻¹
